According to patent US20240124560A1:

Key:
Test in all cases: cell-based or functional assay
[1] = target: HIV-1 Env of NAC_93IN905 (HIV-1)
[2] = target: HIV-1 Env of pseudovirus NIH-053_CNE52 (HIV-1)
[3] = target: HIV-1 Env of NIH-100_6041.v3.c23 (HIV-1)
[4] = target: HIV-1 Env of pseudovirus NIH-043_ZM249M.B10 (HIV-1)
[5] = target: HIV-1 Env of pseudovirus NIH-039_Ce2060 G9 (HIV-1)
[6] = target: HIV-1 Env of NIH-071_R1166.c01 (HIV-1)
[7] = target: HIV-1 Env of NIH-038_Ce1172 H1 (HIV-1)
[8] = target: HIV-1 Env of NAC_92RW020 (HIV-1)
[9] = target: HIV-1 Env of NIH-016_SC05.8C11.2344 (HIV-1)
[10] = target: HIV-1 Env of pseudovirus NIH-072_R3265.c06 (HIV-1)
[11] = target: HIV-1 Env of NAC_RHPA4.7 (HIV-1)
[12] = target: HIV-1 Env of NIH-106_T250.4 (HIV-1)
[13] = target: HIV-1 Env of NIH-051_CNE17 (HIV-1)
[14] = target: HIV-1 Env of pseudovirus NIH-035_Ce1176 A3 (HIV-1)
[15] = target: HIV-1 Env of pseudovirus NHI-028_CAP210.E8 (HIV-1)
[16] = target: HIV-1 Env of pseudovirus NIH-027_CAP45.G3 (HIV-1)
[17] = target: HIV-1 Env of NIH-065_191955 A11 (HIV-1)
[18] = target: HIV-1 Env of NIH-069_C1080.c03 (HIV-1)
[19] = target: HIV-1 Env of NIH-019_Du422.1 (HIV-1)
[20] = target: HIV-1 Env of NIH-080_BJOX025000.01.1 (HIV-1)
[21] = target: HIV-1 Env of NAC_SS1196.1 (HIV-1)
[22] = target: HIV-1 Env of NAC_JRFL (HIV-1)
[23] = target: HIV-1 Env of NAC_ADA (HIV-1)
[24] = target: HIV-1 Env of pseudovirus NIH-049_CNE20 (HIV-1)
[25] = target: HIV-1 Env of pseudovirus NIH-064_0260.v5.c1 (HIV-1)
[26] = target: HIV-1 Env of pseudovirus NAC_RHPA4.7 (HIV-1)
[27] = target: HIV-1 Env of pseudovirus NAC_KNH1144 (HIV-1)
[28] = target: HIV-1 Env of pseudovirus NIH-014_6244.13.B5.4567 (HIV-1)
[29] = target: HIV-1 Env of NIH-054_CNE53 (HIV-1)
[30] = target: HIV-1 Env of pseudovirus NIH-017_Du156.12 (HIV-1)
[31] = target: HIV-1 Env of isolate NIH-086_X2131 C1 B5 (HIV-1)
[32] = target: HIV-1 Env of NIH-009_1006.11.C3.1601 (HIV-1)
[33] = target: HIV-1 Env of pseudovirus NAC_94UG103 (HIV-1)
[34] = target: HIV-1 Env of NIH-115_928.28 (HIV-1)
[35] = target: HIV-1 Env of NIH-002_QHO692 .42 (HIV-1)
[36] = target: HIV-1 Env of NAC_HxB2 (HIV-1) (UniProt P04578)
[37] = target: HIV-1 Env of pseudovirus NAC_ADA (HIV-1)
[38] = target: HIV-1 Env of NIH-060_Q769ENVd22 (HIV-1)
[39] = target: HIV-1 Env of pseudovirus NIH-051_CNE17 (HIV-1)
[40] = target: HIV-1 Env of NAC_92TH021 (HIV-1)
[41] = target: HIV-1 Env of NIH-004_PVO.4 (HIV-1)
[42] = target: HIV-1 Env of pseudovirus NIH-073_C3347.c11 (HIV-1)
[43] = target: HIV-1 Env of NIH-052_CNE30 (HIV-1)
[44] = target: HIV-1 Env of pseudovirus NIH-086_X2131 C1 B5 (clade G) (HIV-1)
[45] = target: HIV-1 Env of NIH-032_HIV-16845.2.22 (HIV-1)
[46] = target: HIV-1 Env of NIH-017_Du156.12 (HIV-1)
[47] = target: HIV-1 Env of NIH-077_BJOX009000.02.4 (HIV-1)

Substance: 4E10 (antibody)
- IC80 neutralization [1]: 0.472 µg/mL
- neutralization IC50 [2]: 0.954 µg/mL
- IC80 neutralization [3]: 22.2 µg/mL
- neutralization IC50 [4]: 1.11 µg/mL
- neutralization IC50 [5]: 1.24 µg/mL
- IC80 neutralization [6]: 1.77 µg/mL
- IC80 neutralization [7]: 4.56 µg/mL
- IC80 neutralization [8]: 9.61 µg/mL
- IC80 neutralization [9]: 3.44 µg/mL
- neutralization IC50 [10]: 0.491 µg/mL
- IC80 neutralization [11]: 19.3 µg/mL
- IC80 neutralization [12]: 3.42 µg/mL
- IC80 neutralization [13]: 2.23 µg/mL
- neutralization IC50 [14]: 1.74 µg/mL
- neutralization IC50 [15]: 0.847 µg/mL
- neutralization IC50 [16]: 0.886 µg/mL
- IC80 neutralization [17]: 0.157 µg/mL
- IC80 neutralization [18]: 1.36 µg/mL
- IC80 neutralization [19]: 5.66 µg/mL
- IC80 neutralization [20]: 1.59 µg/mL
- IC80 neutralization [21]: 3.96 µg/mL
- IC80 neutralization [22]: > 50 µg/mL
- IC80 neutralization [23]: 3.34 µg/mL
- neutralization IC50 [24]: 0.383 µg/mL
- neutralization IC50 [25]: 0.227 µg/mL
- neutralization IC50 [26]: 4.66 µg/mL
- neutralization IC50 [27]: 11.5 µg/mL
- neutralization IC50 [28]: 0.077 µg/mL
- IC80 neutralization [29]: 1.52 µg/mL
- neutralization IC50 [30]: 0.101 µg/mL
- IC80 (µg/ml), TZM-bl pseudovirus neutralization [31]: 0.765 µg/mL
- IC80 neutralization [32]: 22.7 µg/mL
- neutralization IC50 [33]: 1.77 µg/mL
- IC80 neutralization [34]: 0.438 µg/mL
- IC80 neutralization [35]: 25 µg/mL
- IC80 neutralization [36]: 0.089 µg/mL
- neutralization IC50 [37]: 0.836 µg/mL
- IC80 neutralization [38]: 6.57 µg/mL
- neutralization IC50 [39]: 0.526 µg/mL
- IC80 neutralization [40]: 1.38 µg/mL
- IC80 neutralization [41]: 38.7 µg/mL
- neutralization IC50 [42]: 0.034 µg/mL
- IC80 neutralization [43]: 16.6 µg/mL
- IC50 (µg/ml), TZM-bl cell neutralization assay, pseudovirus [44]: 0.194 µg/mL
- IC80 neutralization [45]: 0.653 µg/mL
- IC80 neutralization [46]: 0.447 µg/mL
- IC80 neutralization [47]: 1.62 µg/mL

Substance: PGZL1 (antibody)
- IC80 neutralization [1]: 2.2 µg/mL
- neutralization IC50 [2]: 24.3 µg/mL
- IC80 neutralization [3]: > 50 µg/mL
- neutralization IC50 [4]: 6.26 µg/mL
- neutralization IC50 [5]: 15 µg/mL
- IC80 neutralization [6]: 19.5 µg/mL
- IC80 neutralization [7]: 6.6 µg/mL
- IC80 neutralization [8]: > 50 µg/mL
- IC80 neutralization [9]: 24.6 µg/mL
- neutralization IC50 [10]: 28 µg/mL
- IC80 neutralization [11]: > 50 µg/mL
- IC80 neutralization [12]: > 50 µg/mL
- IC80 neutralization [13]: 48.6 µg/mL
- neutralization IC50 [14]: 31.7 µg/mL
- neutralization IC50 [15]: 16.7 µg/mL
- neutralization IC50 [16]: 18.3 µg/mL
- IC80 neutralization [17]: 8.56 µg/mL
- IC80 neutralization [18]: 6.93 µg/mL
- IC80 neutralization [19]: 30.5 µg/mL
- IC80 neutralization [20]: 29.3 µg/mL
- IC80 neutralization [21]: 22.2 µg/mL
- IC80 neutralization [22]: > 50 µg/mL
- IC80 neutralization [23]: 21.8 µg/mL
- neutralization IC50 [24]: 2.42 µg/mL
- neutralization IC50 [25]: > 50 µg/mL
- neutralization IC50 [26]: > 50 µg/mL
- neutralization IC50 [27]: > 50 µg/mL
- neutralization IC50 [28]: 1.31 µg/mL
- IC80 neutralization [29]: 23.9 µg/mL
- neutralization IC50 [30]: 0.623 µg/mL
- IC80 (µg/ml), TZM-bl pseudovirus neutralization [31]: 3.5 µg/mL
- IC80 neutralization [32]: > 50 µg/mL
- neutralization IC50 [33]: 24.1 µg/mL
- IC80 neutralization [34]: 5.45 µg/mL
- IC80 neutralization [35]: > 50 µg/mL
- IC80 neutralization [36]: 0.485 µg/mL
- neutralization IC50 [37]: 5.36 µg/mL
- IC80 neutralization [38]: > 50 µg/mL
- neutralization IC50 [39]: 12.4 µg/mL
- IC80 neutralization [40]: 8.27 µg/mL
- IC80 neutralization [41]: > 50 µg/mL
- neutralization IC50 [42]: 0.055 µg/mL
- IC80 neutralization [43]: > 50 µg/mL
- IC50 (µg/ml), TZM-bl cell neutralization assay, pseudovirus [44]: 0.885 µg/mL
- IC80 neutralization [45]: 2.47 µg/mL
- IC80 neutralization [46]: 2.5 µg/mL
- IC80 neutralization [47]: 15.8 µg/mL

Substance: VRC01 (antibody)
- IC80 neutralization [1]: 0.28 µg/mL
- neutralization IC50 [2]: 0.142 µg/mL
- IC80 neutralization [3]: 0.087 µg/mL
- neutralization IC50 [4]: 0.071 µg/mL
- neutralization IC50 [5]: 0.109 µg/mL
- IC80 neutralization [6]: 1.95 µg/mL
- IC80 neutralization [7]: > 50 µg/mL
- IC80 neutralization [8]: 0.811 µg/mL
- IC80 neutralization [9]: 1.98 µg/mL
- neutralization IC50 [10]: 0.126 µg/mL
- IC80 neutralization [11]: 0.137 µg/mL
- IC80 neutralization [12]: > 50 µg/mL
- IC80 neutralization [13]: 0.904 µg/mL
- neutralization IC50 [14]: 1.25 µg/mL
- neutralization IC50 [15]: > 50 µg/mL
- neutralization IC50 [16]: 1.92 µg/mL
- IC80 neutralization [17]: 0.467 µg/mL
- IC80 neutralization [18]: 5.7 µg/mL
- IC80 neutralization [19]: > 50 µg/mL
- IC80 neutralization [20]: 24.8 µg/mL
- IC80 neutralization [21]: 0.659 µg/mL
- IC80 neutralization [22]: 0.741 µg/mL
- IC80 neutralization [23]: 1.31 µg/mL
- neutralization IC50 [24]: 4.85 µg/mL
- neutralization IC50 [25]: 0.124 µg/mL
- neutralization IC50 [26]: 0.035 µg/mL
- neutralization IC50 [27]: 0.134 µg/mL
- neutralization IC50 [28]: 0.045 µg/mL
- IC80 neutralization [29]: 0.166 µg/mL
- neutralization IC50 [30]: 0.059 µg/mL
- IC80 (µg/ml), TZM-bl pseudovirus neutralization [31]: 0.284 µg/mL
- IC80 neutralization [32]: 0.571 µg/mL
- neutralization IC50 [33]: 0.187 µg/mL
- IC80 neutralization [34]: 0.99 µg/mL
- IC80 neutralization [35]: 7.93 µg/mL
- IC80 neutralization [36]: 0.081 µg/mL
- neutralization IC50 [37]: 0.314 µg/mL
- IC80 neutralization [38]: 0.092 µg/mL
- neutralization IC50 [39]: 0.219 µg/mL
- IC80 neutralization [40]: 1.31 µg/mL
- IC80 neutralization [41]: 0.79 µg/mL
- neutralization IC50 [42]: 0.063 µg/mL
- IC80 neutralization [43]: 2.38 µg/mL
- IC50 (µg/ml), TZM-bl cell neutralization assay, pseudovirus [44]: 0.073 µg/mL
- IC80 neutralization [45]: 4.25 µg/mL
- IC80 neutralization [46]: 0.23 µg/mL
- IC80 neutralization [47]: 2.34 µg/mL
